Reference: paper PMC5608758, “A brain-targeting lipidated peptide for neutralizing RNA-mediated toxicity in Polyglutamine Diseases” (Scientific Reports, 2017)
“Also recorded” adds a separate entry of the source. Each block holds one compound with its values, some of them ahead of it. Non-standard residues stand in square brackets, D forms with d. Residues, ends and D or L forms follow the SMILES beside them. hArg = N=C(N)NCCCC[C@H](N)C(=O)O; Orn = NCCC[C@H](N)C(=O)O

Legend:
expanded MJD CAG78 RNA = assay: Isothermal titration calorimetry binding assay, expanded CAG RNA; conditions: ITC, 25 °C, 20 mM MOPS pH 7.0, 300 mM NaCl; 0.7 mM peptide titrated into 0.5 µM MJD CAG78 RNA; one binding site model; mean ± S.E.M., at least 3 independent experiments
Procedure: Experiments were carried out using a MicroCal iTC200 isothermal titration calorimeter (GE Healthcare) at 25 °C. Data were analyzed using the Origin® scientific plotting software version 7 (Microcal Software Inc.). All RNAs and peptides were dissolved in binding buffer (20 mM MOPS, pH 7.0; 300 mM NaCl) and 0.7 mM of peptide was titrated into 0.5 µM of RNA for each experiment. The concentration of RNA was estimated with appropriate extinction coefficients at 260 nm on a Nanodrop 2000 (Thermo Scientific). A reference power of 8 μcal/s was used with an initial 0.5 µl of injection of peptide followed by 2 µl for all subsequent titrations points with a 60 sec initial equilibrium delay and 150 sec pause between injections. The samples were stirred at a speed of 1000 rpm throughout the experiment. The thermal titration data were fitted to the ‘one binding site model’ to determine the dissociation constant (KD). Each experiment was repeated at least 3 times with consistent results obtained.

P3V8 = assay: ITC; conditions: ITC (MicroCal iTC200): 20 mM MOPS pH 7.0, 300 mM NaCl, 25 C; 0.7 mM peptide titrated into 0.5 uM RNA; one-site model; errors are SEM, n>=3
P3V9 = assay: ITC; conditions: ITC (MicroCal iTC200): 20 mM MOPS pH 7.0, 300 mM NaCl, 25 C; 0.7 mM peptide titrated into 0.5 uM RNA; one-site model; errors are SEM, n>=3
P3MT4 = assay: ITC; conditions: ITC (MicroCal iTC200): 20 mM MOPS pH 7.0, 300 mM NaCl, 25 C; 0.7 mM peptide titrated into 0.5 uM RNA; one-site model; errors are SEM, n>=3
P3V7 = assay: ITC; conditions: ITC (MicroCal iTC200): 20 mM MOPS pH 7.0, 300 mM NaCl, 25 C; 0.7 mM peptide titrated into 0.5 uM RNA; one-site model; errors are SEM, n>=3
P3MT2 = assay: ITC; conditions: ITC (MicroCal iTC200): 20 mM MOPS pH 7.0, 300 mM NaCl, 25 C; 0.7 mM peptide titrated into 0.5 uM RNA; one-site model; errors are SEM, n>=3
P3MT5 = assay: ITC; conditions: ITC (MicroCal iTC200): 20 mM MOPS pH 7.0, 300 mM NaCl, 25 C; 0.7 mM peptide titrated into 0.5 uM RNA; one-site model; errors are SEM, n>=3
P3V3 = assay: ITC; conditions: ITC (MicroCal iTC200): 20 mM MOPS pH 7.0, 300 mM NaCl, 25 C; 0.7 mM peptide titrated into 0.5 uM RNA; one-site model; errors are SEM, n>=3
P3V2 = assay: ITC; conditions: ITC (MicroCal iTC200): 20 mM MOPS pH 7.0, 300 mM NaCl, 25 C; 0.7 mM peptide titrated into 0.5 uM RNA; one-site model; errors are SEM, n>=3
P3V1 = assay: ITC; conditions: ITC (MicroCal iTC200): 20 mM MOPS pH 7.0, 300 mM NaCl, 25 C; 0.7 mM peptide titrated into 0.5 uM RNA; one-site model; errors are SEM, n>=3
P3 (P3WT) = assay: ITC; conditions: ITC (MicroCal iTC200): 20 mM MOPS pH 7.0, 300 mM NaCl, 25 C; 0.7 mM peptide titrated into 0.5 uM RNA; one-site model; errors are SEM, n>=3
P3V6 = assay: ITC; conditions: ITC (MicroCal iTC200): 20 mM MOPS pH 7.0, 300 mM NaCl, 25 C; 0.7 mM peptide titrated into 0.5 uM RNA; one-site model; errors are SEM, n>=3
P3V4 = assay: ITC; conditions: ITC (MicroCal iTC200): 20 mM MOPS pH 7.0, 300 mM NaCl, 25 C; 0.7 mM peptide titrated into 0.5 uM RNA; one-site model; errors are SEM, n>=3
P3MT1 = assay: ITC; conditions: ITC (MicroCal iTC200): 20 mM MOPS pH 7.0, 300 mM NaCl, 25 C; 0.7 mM peptide titrated into 0.5 uM RNA; one-site model; errors are SEM, n>=3
P3V5 = assay: ITC; conditions: ITC (MicroCal iTC200): 20 mM MOPS pH 7.0, 300 mM NaCl, 25 C; 0.7 mM peptide titrated into 0.5 uM RNA; one-site model; errors are SEM, n>=3
P3MT3 = assay: ITC; conditions: ITC (MicroCal iTC200): 20 mM MOPS pH 7.0, 300 mM NaCl, 25 C; 0.7 mM peptide titrated into 0.5 uM RNA; one-site model; errors are SEM, n>=3

KD (expanded MJD CAG78 RNA): No binding
Compound: CC[C@H](C)[C@H](NC(=O)CNC(=O)[C@H](CCCCN)NC(=O)[C@H](CO)NC(=O)[C@H](CCCCNC(=N)N)NC(=O)CNC(=O)[C@H](CC(=O)O)NC(C)=O)C(=O)N[C@@H](C)C(=O)N[C@@H](Cc1ccc(O)cc1)C(=O)N[C@H](C(=O)N[C@@H](CCC(=O)O)C(=O)N[C@@H](Cc1ccccc1)C(=O)N[C@@H](CCCCN)C(N)=O)[C@@H](C)CC [P3V14] (Ac-DG[hArg]SKGIAYIEFK-NH2)

KD (expanded MJD CAG78 RNA): No binding
Compound: CC[C@H](C)[C@H](NC(=O)CNC(=O)[C@H](CCCCNC(=N)N)NC(=O)[C@H](CO)NC(=O)[C@H](CCCCN)NC(=O)CNC(=O)[C@H](CC(=O)O)NC(C)=O)C(=O)N[C@@H](C)C(=O)N[C@@H](Cc1ccc(O)cc1)C(=O)N[C@H](C(=O)N[C@@H](CCC(=O)O)C(=O)N[C@@H](Cc1ccccc1)C(=O)N[C@@H](CCCCN)C(N)=O)[C@@H](C)CC [P3V15] (Ac-DGKS[hArg]GIAYIEFK-NH2)

KD (expanded MJD CAG78 RNA): No binding
Compound: CC[C@H](C)[C@H](NC(=O)CNC(=O)[C@H](CCCCN)NC(=O)[C@H](CO)NC(=O)[C@H](CCCN)NC(=O)CNC(=O)[C@H](CC(=O)O)NC(C)=O)C(=O)N[C@@H](C)C(=O)N[C@@H](Cc1ccc(O)cc1)C(=O)N[C@H](C(=O)N[C@@H](CCC(=O)O)C(=O)N[C@@H](Cc1ccccc1)C(=O)N[C@@H](CCCCN)C(N)=O)[C@@H](C)CC [P3V16] (Ac-DG[Orn]SKGIAYIEFK-NH2)

KD (expanded MJD CAG78 RNA): No binding
Compound: CC[C@H](C)[C@H](NC(=O)CNC(=O)[C@H](CCCN)NC(=O)[C@H](CO)NC(=O)[C@H](CCCCN)NC(=O)CNC(=O)[C@H](CC(=O)O)NC(C)=O)C(=O)N[C@@H](C)C(=O)N[C@@H](Cc1ccc(O)cc1)C(=O)N[C@H](C(=O)N[C@@H](CCC(=O)O)C(=O)N[C@@H](Cc1ccccc1)C(=O)N[C@@H](CCCCN)C(N)=O)[C@@H](C)CC [P3V17] (Ac-DGKS[Orn]GIAYIEFK-NH2)

Compound: Ac-DGKSKGIAYIEFKDGKSKGIAYIEFK-NH2 [P3V20]
KD (expanded MJD CAG78 RNA): No binding; also recorded: did not show any binding

Compound: Ac-DGKSKGIAYIEFKGDGKSKGIAYIEFK-NH2 [P3V21]
KD (expanded MJD CAG78 RNA): No binding; also recorded: did not show any binding

Kd (expanded MJD CAG78 RNA): 2340 ± 490 nM
Compound: Ac-DGRSRGIAYIEFK-NH2 [P3V9]

Compound: MJD CAA/G78 RNA (expanded, interrupted)
Kd (P3V8): 2940 nM

Compound: MJD CAG27 RNA (unexpanded)
Kd (P3V8): 2190 nM

Compound: MJD CAG78 RNA (expanded)
Kd (P3V9): 2340 nM | Kd (P3MT4): 17.4 µM | Kd (P3V7): 3.67 µM | Kd (P3MT2): 101 µM | Kd (P3MT5): 51.3 µM | Kd (P3V3): 1740 nM | Kd (P3V2): 2210 nM | Kd (P3V1): 2000 nM | Kd (P3 (P3WT)): 8.37 µM | Kd (P3V6): 23.8 µM | Kd (P3V4): 4.44 µM | Kd (P3MT1): 31.3 µM | Kd (P3V5): 860 nM | Kd (P3V8): 330 nM | Kd (P3MT3): 16.6 µM
